Experimental findings from patent US20230340152A1 (published 2023) are described below.

Changes are numbered by the printed parent chain. In names and notes the source's numbering stands.

Assay in all cases: SPR (ProteOn), CD73 variant immobilized on HTG chip
For assay [1], the target named is T1, Human CD73 V144K, His-tagged (human, UniProt P21589 27-549).
T1 sequence: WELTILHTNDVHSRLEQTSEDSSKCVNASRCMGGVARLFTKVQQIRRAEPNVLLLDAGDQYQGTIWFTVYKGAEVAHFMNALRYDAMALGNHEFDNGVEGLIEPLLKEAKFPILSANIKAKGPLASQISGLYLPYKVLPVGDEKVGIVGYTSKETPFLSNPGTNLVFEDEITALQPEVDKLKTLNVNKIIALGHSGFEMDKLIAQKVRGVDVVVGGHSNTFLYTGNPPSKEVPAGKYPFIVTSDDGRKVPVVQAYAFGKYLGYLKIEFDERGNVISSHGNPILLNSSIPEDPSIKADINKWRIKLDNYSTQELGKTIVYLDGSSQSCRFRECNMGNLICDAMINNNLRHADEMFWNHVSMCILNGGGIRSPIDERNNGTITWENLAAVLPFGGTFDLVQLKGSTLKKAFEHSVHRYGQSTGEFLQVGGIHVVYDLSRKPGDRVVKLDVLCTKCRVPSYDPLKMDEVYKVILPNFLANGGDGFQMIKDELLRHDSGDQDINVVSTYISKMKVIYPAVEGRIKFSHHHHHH
On the procedure: (§1) Binding of MEDI9447 to wild-type and mutant CD73 proteins was measured by surface plasmon resonance (SPR) using a ProteOn instrument (BioRad). CD73 crude cell supernatant protein samples were diluted to 3 µg/ml in PBS, 0.005% Tween-20, pH 7.4 (BioRad) and immobilized to ~400 RU on a HTG tris-NTA sensor chip (BioRad) pre-activated with 10 mM NiSO₄, 10 mM MES, pH 6.0 (BioRad). An equivalently diluted crude cell supernatant sample from non-transfected cells was included as a reference channel control. Sensorgrams were recorded by flowing two-fold dilutions of MEDI9447 prepared in PBS, 0.005% Tween-20, pH 7.4, ranging from 5 nM to 0.31 nM. […] Antibody binding was measured at a flow rate of 100 µL/min with a 3 min association phase and 20 min dissociation phase. The sensor chip surface was regenerated between each run by an 800 s injection of 300 mM EDTA, pH 8.5 (BioRad) at a flow rate of 30 µL/min. Binding kinetics were analyzed using the ProteOn data analysis software. Double referencing was performed and, unless noted otherwise, a 1:1 Langmuir binding model was utilized to fit the data. Some CD73 variants containing mutations within the amino acid region 171-188 fit poorly to a 1:1 model (i.e., Chi² values >10% of Rmax). Where noted, these variants were fit with a heterogenous antigen (2:1) model. […] Due to the assay format (antigen immobilized) and the dimeric state of CD73, KD values may be exaggerated due to avidity effects. However, it is not anticipated that this impacts ranking of MEDI9447 binding to the different CD73 variants.

In assay [2] the target is T2, KO_Linker CD73 chimera (human; chicken, UniProt P21589 27-553).
T2 construct: also called KO_292-310; linker region-swapped CD73
T2 chain: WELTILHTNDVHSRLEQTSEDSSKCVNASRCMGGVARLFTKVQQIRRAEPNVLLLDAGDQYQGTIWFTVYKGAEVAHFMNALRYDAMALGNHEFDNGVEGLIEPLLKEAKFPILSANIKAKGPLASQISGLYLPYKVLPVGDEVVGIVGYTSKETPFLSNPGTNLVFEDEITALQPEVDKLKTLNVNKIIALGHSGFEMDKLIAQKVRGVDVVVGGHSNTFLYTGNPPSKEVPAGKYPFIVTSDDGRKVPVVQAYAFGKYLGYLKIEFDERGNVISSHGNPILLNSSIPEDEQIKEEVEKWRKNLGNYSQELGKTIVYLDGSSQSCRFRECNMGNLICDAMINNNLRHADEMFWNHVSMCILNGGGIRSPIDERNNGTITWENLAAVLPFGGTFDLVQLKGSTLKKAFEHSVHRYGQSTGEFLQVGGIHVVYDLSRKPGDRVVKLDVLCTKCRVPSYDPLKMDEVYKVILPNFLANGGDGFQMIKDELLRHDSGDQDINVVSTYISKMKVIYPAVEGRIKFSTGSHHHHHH
As for the experimental part: as §1

For assay [3], the target named is T3, Human CD73 K180A+N185G, His-tagged (human, UniProt P21589 27-549).
T3 chain: T1 sequence with K144V, K180A, N185G
On the procedure:
as §1

B1: MEDI9447 (antibody, human IgG1, lambda, V domains shown)
VH: EVQLLESGGGLVQPGGSLRLSCAASGFTFSSYAYSWVRQAPGKGLEWVSAISGSGGRTYYADSVKGRFTISRDNSKNTLYLQMNSLRAEDTAVYYCARLGYGRVDEWGRGTLVTVSS
VL: QSVLTQPPSASGTPGQRVTISCSGSLSNIGRNPVNWYQQLPGTAPKLLIYLDNLRLSGVPDRFSGSKSGTSASLAISGLQSEDEADYYCATWDDSHPGWTFGGGTKLTVLG
notes: Human IgG1-TM (L234F, L235E, P331S), lambda light chain; also called clone 10.3 antibody; 73combo3
A word on the koff: it is the rate constant with which the complex falls apart. For orientation: kon means a measure of how fast the partners come together. Higher therefore signals faster complex formation. The Kd is the concentration at which binding is half-saturated. Read a low Kd as a tighter complex. In assay [1], B1 yielded a koff of 9.18e-05 s⁻¹ and a kon of 1.13e+06 M⁻¹ s⁻¹. Moreover, in assay [2], the Kd worked out at 4.14 pM, the koff is 2.31e-05 s⁻¹ and the kon was determined as 5.7e+06 M⁻¹ s⁻¹. Besides, in assay [3], the binding result was “no binding”.
